± gives the uncertainty stated by the source.
Experiment: self-splicing fitness, log relative to wild type (ln ratio); higher = more splicing; Tetrahymena group I intron in knt gene, E. coli kanamycin selection, DiMSum; sequences stand for … in CUCUCU…GGAGGGAAAAGUUAUCAGGCAUGCACCUGGUAGCUAGUCUUUAAACCAAUAGAUUGCAUCGGUUUAAAAGGCAAGACCGUCAAAUUGCGGGAAAGGGGUCAACAGCCGUUCAGUACCAAGUCUCAGGGGAAACUUUGAGAUGGCCUUGCAAAGGGUAUGGUAAUAAGCUGACGGACAUGGUCCUAACCACGCAGCCAAGUCCUAAGUCAACAGAUCUUCUGUUGAUAUGGAUGCAGUUCACAGACUAAAUGUCGGUCGGGGAAGAUGUAUUCUUCUCAUAAGAUAUAGUCGGACCUCUCCUUAAUGGGAGCUAGCGGAUGAAGUGAUGCAACACUGGAGCCGCUGGGAACUAAUUUGUAUGCGAAAGUAUAUUGAUUAGUUUUGGAGUACUCGUGGUCG
Procedure, shortened: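 DiMSum derived fitness as the error-weighted combination of fold changes across replicates, kanamycin versus no kanamycin, normalised to wild type. E. coli BL21(DE3) held the library, which randomised all eight P1ex-region intron nucleotides within the knt kanamycin-resistance gene on pET-22b(+). Six replicate transformations grew overnight at 37°C or 30°C on LB agar with or without 25 μg/mL kanamycin, also containing 100 μg/mL carbenicillin, 50 μM IPTG and 0.2% rhamnose, and pooled colonies were amplicon-sequenced on an Illumina HiSeq 2500.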

Sequence | self-splicing fitness (ln) (30 °C) | self-splicing fitness (ln) (37 °C)
UUGCAGCAAUAUUACGAAAA | -1.02 ± 0.12 | -0.432 ± 0.12
CCGUAGCAAUAUUACGUUUG | -1 ± 0.081 | -0.134 ± 0.096
AGGUAGCAAUAUUACGGACC | -0.613 ± 0.019 | -0.424 ± 0.037
CAGUAGCAAUAUUACGGUAG | -1.21 ± 0.067 | 0.0261 ± 0.098
GUAGAGCAAUAUUACGGAUA |  | -0.969 ± 0.41
GCCCAGCAAUAUUACGUUUG | -3.95 ± 0.14 | -1.84 ± 0.14
UGUGAGCAAUAUUACGCAUU | -4.49 ± 0.29 | -1.77 ± 0.3
UACUAGCAAUAUUACGUCAU | -2.66 ± 0.2 | -1.74 ± 0.13
ACGCAGCAAUAUUACGUCUG | -2.44 ± 0.14 | -2.5 ± 0.28
UCAGAGCAAUAUUACGUGCG | -2.9 ± 0.23 | -0.826 ± 0.16
AUGAAGCAAUAUUACGCACA | 0.703 ± 0.097 | 0.63 ± 0.14
GGUUAGCAAUAUUACGAUAA | -0.985 ± 0.12 | -0.35 ± 0.14
GUCAAGCAAUAUUACGGGAC | -2.81 ± 0.5 | 
CUGUAGCAAUAUUACGCAAC |  | -2.99 ± 0.47
AUGAAGCAAUAUUACGAGAC | -2.73 ± 0.43 | -1.28 ± 0.47
GAUUAGCAAUAUUACGCGUC | -4.09 ± 0.47 | -2.01 ± 0.3
GACCAGCAAUAUUACGCGCG | -0.501 ± 0.061 | 0.0713 ± 0.078
CGGCAGCAAUAUUACGCUAG | -2.62 ± 0.17 | -1.34 ± 0.18
UGAAAGCAAUAUUACGACGC | -2.04 ± 0.19 | 0.0256 ± 0.17
GGUGAGCAAUAUUACGAAUA | -2.09 ± 0.33 | 
CAGCAGCAAUAUUACGGUGA | -2 ± 0.083 | -0.913 ± 0.086
CCUAAGCAAUAUUACGUGGA | -2.73 ± 0.15 | -2.55 ± 0.28
UGGGAGCAAUAUUACGCGGC | -2.57 ± 0.34 | -1.35 ± 0.28
AGCUAGCAAUAUUACGCCUC | -2.07 ± 0.34 | -1.46 ± 0.37
GCACAGCAAUAUUACGUAGC | -2.19 ± 0.089 | -1.64 ± 0.12

Sequence | self-splicing fitness (ln) (30 °C) | self-splicing fitness (ln) (37 °C)
GUUGAGCAAUAUUACGCAAU | -2.68 ± 0.2 | -3.31 ± 0.29
AAUUAGCAAUAUUACGUUCA | -0.618 ± 0.1 | -0.409 ± 0.12
UGUUAGCAAUAUUACGCAAG | -3.38 ± 0.37 | -2.13 ± 0.4
GAGAAGCAAUAUUACGUGUU | -2.43 ± 0.098 | -1.53 ± 0.14
UUUCAGCAAUAUUACGCCCU | -0.619 ± 0.22 | -0.611 ± 0.29
ACACAGCAAUAUUACGGAGC | -2.36 ± 0.13 | -1.52 ± 0.12
UCCGAGCAAUAUUACGUAGG | -2.69 ± 0.16 | -2 ± 0.25
AGACAGCAAUAUUACGUUCG | -0.687 ± 0.05 | 0.0905 ± 0.072
GCAUAGCAAUAUUACGACGA | -1.06 ± 0.14 | -0.364 ± 0.14
CACUAGCAAUAUUACGGUCC | -2.4 ± 0.12 | -1.29 ± 0.15
ACCCAGCAAUAUUACGUUAA | -1.6 ± 0.078 | -0.769 ± 0.071
CUCGAGCAAUAUUACGCCGA | -1.32 ± 0.19 | -2.42 ± 0.24
AAUAAGCAAUAUUACGGGGC | -3.29 ± 0.26 | -2.91 ± 0.37
AGUUAGCAAUAUUACGGGGU | -3.76 ± 0.46 | -2.61 ± 0.33
GCUCAGCAAUAUUACGUCCU | -1.16 ± 0.11 | -0.818 ± 0.14
UGUAAGCAAUAUUACGAAGU | -3.23 ± 0.47 | -2.46 ± 0.35
GUUAAGCAAUAUUACGGGGG | -3.44 ± 0.34 | -2.67 ± 0.27
UACCAGCAAUAUUACGCCGU | -1.4 ± 0.14 | -1.6 ± 0.23
ACAGAGCAAUAUUACGGGUC | -2.99 ± 0.18 | -2.89 ± 0.27
CACAAGCAAUAUUACGCUUU | -4.46 ± 0.24 | -2.81 ± 0.17
GCUUAGCAAUAUUACGGUGU | -0.596 ± 0.052 | -0.0556 ± 0.068
CUAAAGCAAUAUUACGCGGG | -2.27 ± 0.13 | -2.03 ± 0.15
UAUAAGCAAUAUUACGGGAC | -4.01 ± 0.37 | -2.76 ± 0.32
GACAAGCAAUAUUACGUCAU | -3.05 ± 0.15 | -2.62 ± 0.16

From the supplement of paper PMC7877785
